Test results published in patent US20190100588A1 (VISTERRA, published 2019).
Substitutions are numbered along the chain they refer to.

T1: cell surface CD138 (human CD138) (human, UniProt P18827 23-310)
T1 construct: whole, on cells; also called membrane CD138
T1 sequence (looked up): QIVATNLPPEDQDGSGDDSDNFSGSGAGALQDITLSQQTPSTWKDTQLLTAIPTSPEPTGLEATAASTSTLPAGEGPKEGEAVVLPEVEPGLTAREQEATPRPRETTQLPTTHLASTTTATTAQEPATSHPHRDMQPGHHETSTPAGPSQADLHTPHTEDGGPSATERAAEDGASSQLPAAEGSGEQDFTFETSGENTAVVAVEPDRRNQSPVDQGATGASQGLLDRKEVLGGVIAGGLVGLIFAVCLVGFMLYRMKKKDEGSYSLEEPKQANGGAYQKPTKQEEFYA

T2: Peptide 2a (human)
T2 construct: also called Pep2a
T2 peptide: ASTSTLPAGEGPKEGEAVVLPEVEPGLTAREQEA

T3: Pep6 (human)
T3 construct: also called Peptide 6; Peptide-6
T3 peptide: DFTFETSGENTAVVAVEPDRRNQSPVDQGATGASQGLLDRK

T4: rCD138 (recombinant CD138) (human, UniProt P18827 23-254, limits assumed)
T4 sequence (looked up): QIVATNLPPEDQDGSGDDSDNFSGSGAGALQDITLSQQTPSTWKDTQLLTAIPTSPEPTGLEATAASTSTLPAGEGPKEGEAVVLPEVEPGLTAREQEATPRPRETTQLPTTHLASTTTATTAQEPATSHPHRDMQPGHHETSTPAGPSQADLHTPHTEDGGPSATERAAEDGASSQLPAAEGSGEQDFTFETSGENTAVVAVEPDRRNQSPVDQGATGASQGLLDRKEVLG

T5: recombinant CD138 extracellular domain (soluble CD138) (human, UniProt P18827 23-250)
T5 construct: also called soluble CD138 extracellular domain; biotinylated CD138
T5 sequence: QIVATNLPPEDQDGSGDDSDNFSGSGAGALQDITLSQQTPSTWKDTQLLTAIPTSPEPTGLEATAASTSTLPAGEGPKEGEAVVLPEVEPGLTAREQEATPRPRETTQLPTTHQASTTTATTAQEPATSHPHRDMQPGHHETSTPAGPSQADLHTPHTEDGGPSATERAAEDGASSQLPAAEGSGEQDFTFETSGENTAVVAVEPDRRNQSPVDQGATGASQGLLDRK

T6: Pep5 (human)
T6 construct: also called Peptide 5
T6 peptide: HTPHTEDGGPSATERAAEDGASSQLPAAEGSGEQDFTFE

T7: Pep3 (human)
T7 construct: also called Peptide 3
T7 peptide: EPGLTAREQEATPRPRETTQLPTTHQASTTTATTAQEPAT

T8: Pep4 (human)
T8 construct: also called Peptide 4
T8 peptide: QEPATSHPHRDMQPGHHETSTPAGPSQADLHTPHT

B1: antibody 603 (antibody, V domains shown)
VH: QVQVQVPGAELVKPGASVKVSCKASGYTFTSYWMHWMKKRPGQGLEWIGRIHPSDSDTNYNQNFKGKATLTVDKSSSTAYMQLSSLTSEDSAVYFCATGFSFWGQGTLVTVSA
VL: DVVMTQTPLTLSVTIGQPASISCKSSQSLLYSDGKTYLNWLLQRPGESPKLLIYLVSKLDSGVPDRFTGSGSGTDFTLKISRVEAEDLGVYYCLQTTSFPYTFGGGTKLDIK
notes: Mouse hybridoma-derived anti-CD138 antibody
B2: antibody 624 (antibody, V domains shown)
VH: B1 VH with V6L, M37V, S84T, S91F, F95Y, A97S
VL: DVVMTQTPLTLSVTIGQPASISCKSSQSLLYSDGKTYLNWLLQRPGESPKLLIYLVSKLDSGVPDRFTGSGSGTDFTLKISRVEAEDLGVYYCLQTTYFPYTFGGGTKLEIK
notes: Mouse hybridoma-derived; afucosylated form used for ADCC
B3: antibody 604 (antibody, V domains shown)
VH: QVQLQQPGAELVKPGASVKVSCKASGYNFINYWMHWVKQRPGQGLEWIGRIHPSDSYTNYNQKFKGKATLTVDKSSSTAYMQLSSLTSEDSAVYYCASPISTLYWGQGTTLTVSS
VL: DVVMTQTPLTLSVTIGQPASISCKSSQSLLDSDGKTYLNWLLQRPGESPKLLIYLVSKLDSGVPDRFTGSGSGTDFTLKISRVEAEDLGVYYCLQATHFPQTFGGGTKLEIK
notes: as for B1
B4: antibody 619 (antibody, V domains shown)
VH: QIQLVQSGPELKKPGETVKISCKASGYTFTTYGMSWVKQAPGKGLKWMGWINTYSGVPTYADDFKGRFAFSLETSASTAYLQINNLKNEDTATYFCAREGSTMVTRYYFDYWGQGTTLTVSS
VL: DIVMTQAAPSVPVTPGESVSISCRSSKSLLHSNGNTYLYWFLQRPGQSPQVLIYRMSNLASGVPDRFSGSGSGTAFTLRISRVEAEDVGVYYCMQHLESPYTFGGGTKLEIK
notes: as for B1
B5: antibody 616 (antibody, V domains shown)
VH: B4 VH with Q3H, K19R, G44A, A97T
VL: B4 VL with V51L, Y92H, K108T
notes: as for B1
B6: antibody 623 (antibody, V domains shown)
VH: B4 VH with Y94F
VL: B4 VL with V51L, S99Y, Y101S
notes: as for B1
B7: antibody 2510 (antibody, human IgG1, V domains shown)
VH: QVQLHQPGTSLVKPGASVKLSCKASGYNFSSYYMHWVKQRPGQGLEWIGTIHPSDSTTNYNQKFKGKATLTVDKSSRTAYMQLNSLTFEDSAVYYCANFVYWGQGTSVTVSS
VL: DIVITQDELSNPVTSGDSVSISCRSSKSLLYKDGKTYLNWFLQRPGQSPQLLIYVVSTRASGVSDRFSGSGSGTDFTLEISRVKAEDVGVYYCQQLVEYPYTFGGGTKLEIK
B8: antibody 2610 (antibody, V domains shown)
VH: B7 VH with N28S, Y60C
VL: B7 VL
B9: antibody 1409 (antibody, human IgG1, V domains shown)
VH: EVQLVESGGGLVQPKGSLKLSCAASGFTFNTYAMHWVRQAPGKGLEWVARIRSKSSNYATYYADSVKDRFTISRDDSQSMLYLQMNNLKTEDTAMYYCVRELRLRYAMDYWGQGTSVTVSS
VL: DILMTQTPLTLSVTIGQPASISCKSSQSLLYTNGKTYLNWLLQRPGQSPKRLIYLVSKLDSGVPDRFSGSGSGTDFTLKISRVEAEDLGVYYCLQSTHFPLTFGAGTKLELK
notes: Chimeric monoclonal antibody, murine variable regions and human IgG1
B10: antibody 2710 (antibody, V domains shown)
VH: B7 VH with N28T, Y60C
VL: B7 VL
B11: antibody 2910 (antibody, V domains shown)
VH: B7 VH with N28T
VL: B7 VL
B12: antibody 617 (antibody, V domains shown)
VH: B1 VH with V4L, V6L, G26A, M37V, K39Q, S77N, F95Y
VL: DIVMTQSHKFMSTSVGDRVSITCKASQDVSTTVAWYQQKPGQSPKLLIYSASYRYTGVPDRFTGSGSGTDFTFTISSVQAEDLAVYYCQQHYSTRPTFGGGTKLEIK
notes: as for B1

Target: T1, cell surface CD138 (human CD138)
Experiment: flow cytometry, U266 cells
Experimental: (§1) Binding of anti-CD138 antibodies to CD138 was tested by flow cytometry binding assay. Multiple myeloma cell lines RPMI 8226 (ATCC) and U266 (ATCC) were grown in RPMI1640 with 10% FBS. On the day of experiment, 0.25×10⁶ cells were washed with FACS buffer (PBS+0.5% BSA) and incubated with dilution series of anti-CD138 antibodies (starting 10 ug/ml) or hybridoma supernatants (starting with undiluted supernatant) for 30 min at 4° C. followed by incubation with goat-anti-human/mouse conjugated APC antibodies (BioLegend) for 30 min at 4° C. Fluorescence was detected using flow cytometer.

Row | % cells Positive [%] | Binder
1 | 95.8 | B1
2 | 96.7 | B2
3 | 96 | B3
4 | 3.7 | B4
5 | 6.1 | B5
6 | 7 | B6

Target: T1, cell surface CD138 (human CD138)
Experiment: flow cytometry, RPMI 8226 cells
Experimental: as §1

Row | % cells Positive [%] | Binder
7 | 81.4 | B1
8 | 89.3 | B2
9 | 82.5 | B3
10 | 85 | B4
11 | 18.3 | B5
12 | 63.8 | B6

Target: T2, Peptide 2a
Experiment: ELISA (FIG. 18B)

Row | binding result | Binder
13 | binds | B7
14 | binds | B8

Target: T3, Pep6
Experiment: peptide binding ELISA
Experimental: (§2) As above, the monoclonal antibodies were tested for binding to a series of CD138 peptides in four-fold serial dilutions starting at 1 μg/mL. […] HRP-conjugated anti-human IgG-Fc antibody (1:5000 dilution) was used for detection. Antibody B-B4 was also tested as a reference. […] Reference antibody B-B4 only bound to Peptide 2a.

Row | binding result | Binder
15 | binds | B9

Target: T2, Peptide 2a
Experiment: peptide binding ELISA
Experimental: as §2

Row | binding result | Binder
16 | binds | B9

Target: T4, rCD138 (recombinant CD138)
Experiment: ELISA, coated rCD138

Row | ELISA O.D. [O.D.] | Binder
17 | 0.585 | B1
18 | 1.52 | B2
19 | 0.61 | B3
20 | 0.882 | B4
21 | 1.18 | B5
22 | 0.803 | B6

Target: T1, cell surface CD138 (human CD138)
Experiment: form of CD138 not named

Row | binding result | Binder
23 | binds | B10
24 | binds | B8

Target: T1, cell surface CD138 (human CD138)
Experiment: flow cytometry, U266 cells, afucosylated antibody
Experimental: as §1
The afucosylated antibody variants were then tested for capacity to induce ADCC, as described above.

Row | binding result | Binder
25 | binds | B7
26 | binds | B11

Target: T5, recombinant CD138 extracellular domain …
Experiment: ELISA (FIG. 18A)

Row | binding result | Binder
27 | binds | B7
28 | binds | B8

Target: T3, Pep6
Experiment: ELISA, coated peptide

Row | ELISA O.D. [O.D.] | Binder
29 | 0.809 | B12
30 | 0.863 | B1
31 | 1.68 | B2
32 | 0.939 | B3
33 | 1.37 | B4
34 | 1.62 | B5
35 | 1.67 | B6

Target: T6, Pep5
Experiment: ELISA, coated peptide

Row | ELISA O.D. [O.D.] | Binder
36 | 0.066 | B12
37 | 0.053 | B1
38 | 0.066 | B2
39 | 0.067 | B3
40 | 0.066 | B4
41 | 0.061 | B5
42 | 0.08 | B6

Target: T7, Pep3
Experiment: ELISA, coated peptide

Row | ELISA O.D. [O.D.] | Binder
43 | 0.047 | B1
44 | 0.069 | B2
45 | 0.058 | B3
46 | 0.067 | B4
47 | 0.063 | B5
48 | 0.086 | B6

Target: T8, Pep4
Experiment: ELISA, coated peptide

Row | ELISA O.D. [O.D.] | Binder
49 | 0.091 | B12
50 | 0.051 | B1
51 | 0.069 | B2
52 | 0.058 | B3
53 | 0.066 | B4
54 | 0.065 | B5
55 | 0.082 | B6

Target: T3, Pep6
Experiment: ELISA (FIG. 18C)

Row | binding result | Binder
56 | binds | B7
57 | binds | B8
